Data: patent US7588931B2, “High arachidonic acid producing strains of Yarrowia lipolytica” (E. I. du Pont de Nemours and Company, priority 2004, dated 2009)

System: GUS mRNA
Assay: Comparative analysis of promoters by quantitative (Real Time) PCR of GUS mRNA
Assay type: cell-based, Yarrowia lipolytica
Conditions: for transcription activity relative to the TEF promoter: after 24 hrs in HGM, ATCC #76982 strains
Description: The transcriptional activities of the TEF, GPD, GPDIN, FBA and FBAIN promoters were determined in Y. lipolytica containing the pY5-30, PYZGDG, pDMW222, pDMW212 and pDMW214 constructs by quantitative PCR analyses. This required isolation of RNA and real time RT-PCR.
More specifically, Y. lipolytica ATCC #76982 strains containing pY5-30, PYZGDG, pDMW222, pDMW212 and pDMW214 were grown from single colonies in 6 mL of MM in 25 mL Erlenmeyer flasks for 16 hrs at 30° C. Each of the 6 mL starter cultures was then added to individual 500 mL flasks containing 140 mL HGM and incubated at 30° C. for 4 days. In each interval of 24 hrs, 1 mL of each culture was removed from each flask to measure the optical density, 27 mL was removed and used for a fluorometric GUS assay (as described above), and two aliquots of 1.5 mL were removed for RNA isolation. The culture for RNA isolation was centrifuged to produce a cell pellet.
The RNA was isolated from Yarrowia strains according to the modified Qiagen RNeasy mini protocol (Qiagen, San Diego, Calif.). Briefly, at each time point for each sample, 340 μL of Qiagen's buffer RLT was used to resuspend each of the two cell pellets. The buffer RLT/cell suspension mixture from each of the two tubes was combined in a bead beating tube (Bio101, San Diego, Calif.). About 500 μL of […] glass beads was added to the tube and the cells were disrupted by bead beating 2 min at setting 5 (BioPulverizer, Bio101 Company, San Diego, Calif.). The disrupted cells were then pelleted by centrifugation at 14,000 rpm for 1 min and 350 μl of the supernatent was transferred to a new microcentrifuge tube. Ethanol (350 μL of 70%) was added to each homogenized lysate. After gentle mixing, the entire sample was added to a RNeasy mini column in a 2 mL collection tube. The sample was centrifuged for 15 sec at 10,000 rpm. Buffer RW1 (350 μL) was added to the RNeasy mini column and the column was centrifuged for 15 sec at 10,000 rpm to wash the cells. The eluate was discarded. Qiagen's DNasel stock solution (10 μL) was added to 70 μl of Buffer RDD and gently mixed. This entire DNase solution was added to the RNeasy mini column and incubated at room temperature for 15 min. After the incubation step, 350 μL of Buffer RW1 was added to the mini column and the column was centrifuged for 15 sec at 10,000 rpm. The column was washed twice with 700 μL […]. RNase-free water (50 μL) was added to the column. The column was centrifuged for 1 min at 10,000 rpm to elute the RNA.
A two-step RT-PCR protocol was used, wherein total Yarrowia RNA was first converted to cDNA and then cDNA was analyzed using Real Time PCR. The conversion to cDNA was performed using Applied Biosystems' High Capacity cDNA Archive Kit (PN#4322171; Foster City, Calif.) and Molecular Biology Grade water from MediaTech, Inc. (PN# 46-000-Con; Holly Hill, Fla.). Total RNA from Yarrowia (100 ng) was converted to cDNA by combining it with 10 μl of RT buffer, 4 μl of 25×dNTPs, 10 μl 10× Random Hexamer primers, 5 μl Multiscribe Reverse Transcriptase and 0.005 μl RNase Inhibitor, and brought to a total reaction volume of 100 μl with water. The reactions were incubated in a thermocycler for 10 min at 25° C. followed by 2 hrs at 37° C. The cDNA was stored at −20° C. prior to Real Time analysis.
Real Time analysis was performed using the SYBR Green PCR Master Mix from Applied Biosystems (PN# 4309155). The Reverse Transcription reaction (2 μl) was added to 10 μl of 2×SYBR PCR Mix, 0.2 μl of 100 μM Forward and Reverse primers for either URA (i.e., primers YL-URA-16F and YL-URA-78R [SEQ ID NOs:183 and 184]) or GUS (i.e., primers GUS-767F and GUS-891R [SEQ ID NO:185 and 186]) and 7.2 μl water. The reactions were thermocycled for 10 min at 95° C. followed by 40 cycles of 95° C. for 5 sec and 60° C. for 1 min in an ABI 7900 Sequence Detection System instrument. Real time fluorescence data was collected during the 60° C. extension during each cycle. […]

B1: FBA: Y. lipolytica fructose-bisphosphate aldolase promoter, SEQ ID NO:161 (nucleic acid, listed as Yarrowia lipolytica)
DNA: TAAACAGTGTACGCAGTACTATAGAGGAACAATTGCCCCGGAGAAGACGGCCAGGCCGCCTAGATGACAAATTCAACAACTCACAGCTGACTTTCTGCCATTGCCACTAGGGGGGGCCTTTTTATATGGCCAAGCCAAGCTCTCCACGTCGGTTGGGCTGCACCCAACAATAAATGGGTAGGGTTGCACCAACAAAGGGATGGGATGGGGGGTAGAAGATACGAGGATAACGGGGCTCAATGGCACAAATAAGAACGAATACTGCCATTAAGACTCGTGATCCAGCGACTGACACCATTGCATCATCTAAGGGCCTCAAAACTACCTCGGAACTGCTGCGCTGATCTGGACACCACAGAGGTTCCGAGCACTTTAGGTTGCACCAAATGTCCCACCAGGTGCAGGCAGAAAACGCTGGAACAGCGTGTACAGTTTGTCTTAACAAAAAGTGAGGGCGCTGAGGTCGAGCAGGGTGGTGTGACTTGTTATAGCCTTTAGAGCTGCGAAAGCGCGTATGGATTTGGCTCATCAGGCCAGATTGAGGGTCTGTGGACACATGTCATGTTAGTGTACTTCAATCGCCCCCTGGATATAGCCCCGACAATAGGCCGTGGCCTCATTTTTTTGCCTTCCGCACATTTCCATTGCTCGGTACCCACACCTTGCTTCTCCTGCACTTGCCAACCTTAATACTGGTTTACATTGACCAACATCTTACAAGCGGGGGGCTTGTCTAGGGTATATATAAACAGTGGCTCTCCCAATCGGTTGCCAGTCTCTTTTTTCCTTTCTTTCCCCACAGATTCGAAATCTAAACTACACATCACACAATGCCTGTTACTGACGTCCTTAAGCGAAAGTCCGGTGTCATCGTCGGCGACGATGTCCGAGCCGTGAGTATCCACGACAAGATCAGTGTCGAGACGACGCGTTTTGTGTAATGACACAATCCGAAAGTCGCTAGCAACACACACTCTCTACACAAACTAACCCAGCTCTCC
modifications: misc_feature: Promoter FBA
In the case of B1, the “transcription activity relative to the TEF promoter” value is reported as “about 3.3 times”.

B2: FBAIN: fructose-bisphosphate aldolase + intron promoter, SEQ ID NO:162 (nucleic acid, listed as Yarrowia lipolytica)
DNA: AAATTGCCCCGGAGAAGACGGCCAGGCCGCCTAGATGACAAATTCAACAACTCACAGCTGACTTTCTGCCATTGCCACTAGGGGGGGGCCTTTTTATATGGCCAAGCCAAGCTCTCCACGTCGGTTGGGCTGCACCCAACAATAAATGGGTAGGGTTGCACCAACAAAGGGATGGGATGGGGGGTAGAAGATACGAGGATAACGGGGCTCAATGGCACAAATAAGAACGAATACTGCCATTAAGACTCGTGATCCAGCGACTGACACCATTGCATCATCTAAGGGCCTCAAAACTACCTCGGAACTGCTGCGCTGATCTGGACACCACAGAGGTTCCGAGCACTTTAGGTTGCACCAAATGTCCCACCAGGTGCAGGCAGAAAACGCTGGAACAGCGTGTACAGTTTGTCTTAACAAAAAGTGAGGGCGCTGAGGTCGAGCAGGGTGGTGTGACTTGTTATAGCCTTTAGAGCTGCGAAAGCGCGTATGGATTTGGCTCATCAGGCCAGATTGAGGGTCTGTGGACACATGTCATGTTAGTGTACTTCAATCGCCCCCTGGATATAGCCCCGACAATAGGCCGTGGCCTCATTTTTTTGCCTTCCGCACATTTCCATTGCTCGGTACCCACACCTTGCTTCTCCTGCACTTGCCAACCTTAATACTGGTTTACATTGACCAACATCTTACAAGCGGGGGGCTTGTCTAGGGTATATATAAACAGTGGCTCTCCCAATCGGTTGCCAGTCTCTTTTTTCCTTTCTTTCCCCACAGATTCGAAATCTAAACTACACATCACACAATGCCTGTTACTGACGTCCTTAAGCGAAAGTCCGGTGTCATCGTCGGCGACGATGTCCGAGCCGTGAGTATCCACGACAAGATCAGTGTCGAGACGACGCGTTTTGTGTAATGACACAATCCGAAAGTCGCTAGCAACACACACTCTCTACACAAACTAACCCAGCTCTCC
modifications: misc_feature: Promoter FBAIN
For B2, the “transcription activity relative to the TEF promoter” value was about 6 times and the “transcriptional activity relative to the TEF promoter” value (final day of the 4 day experiment in HGM) was “about 3 times”.
